Measurements reported in patent US7960548B2, “Keratinocyte growth factor receptor—tyrosine specific inhibitors for the prevention of cancer metastatis” (The Ohio State University Research Foundation, priority 2005, dated 2011).

Key:
MCF-7 cells [1] = assay: KGF-mediated motility of MCF-7 cells with TK signaling pathway inhibitors; type: cell-based, human
Description: (§1) In order to define the signaling pathway involved in the KGF-mediated breast cancer cell motility, we have examined the influence of inhibitors of intermediates in the TK signaling pathway (29, 30, 31). […] In addition, inhibition of Grb2, using a specific Grb2 antisense oligonucleotide, abolished KGF-mediated motility of MCF-7 cells (30, 31). […] Thus, we have observed that the KGFR-Erk1,2 pathway mediates KGF-induced cell motility in ER-positive breast cancer cells. Accordingly, inhibitors targeting the KGF/KGFR/Grb2/Erk1,2 pathway have the potential to be selective therapeutic or chemopreventive modalities against breast cancer metastasis. […] Thus we next considered the design of selective KGFR TK inhibitors to be examined in this study.

phospho-Erk1,2 = assay: Western blot of phospho-Erk1,2 in MCF-7 cells; type: cell-based, human; details: 50 ng/ml KGF and/or inhibitor for 3 days
Description: The cells were treated with 50 ng/ml KGF and/or signal transduction inhibitor for 3 days. Equal amounts of protein (10 μg) were loaded for SDS-PAGE analysis.
as §1

[2] = test system: MDA-MB-231, SK-BR-3, BT-20; assay: KGF motility response of ER-negative cell lines; type: cell-based, human; details: KGF 10-50 ng/ml
MCF-7 human cancer cells = assay: Motility effect of KGF by time-lapse videomicroscopy and culture wounding; type: cell-based
Description: Based on this background information, we examined the motility effect of KGF on human breast cancer cells using time-lapse videomicroscopy and culture wounding (22, 23). […] The KGF motility effect is characterized by a rapid increase in ruffling of the plasma membrane and cell scattering. […] Scanning electron microscopy of KGF-treated MCF-7 cells confirmed dramatic changes in cell morphology consistent with active cell motility (FIG. 1). […] Changes in cell morphology, associated with membrane ruffling and motility are believed to be associated with cytoskeletal reorganization and necessary for adhesion foci, cell surface ligand-receptor binding and regulation of gene transduction (24, 25). Accordingly, we have previously observed a significant alteration in the distribution of f-actin in the cytoplasm of KGF stimulated MCF-7 cells (22).

MCF-7, T-47D, ZR-75-1 = assay: KGF motility response of ER-positive human breast cancer cell lines; type: cell-based; details: KGF 10-50 ng/ml
Description: In our previous experiments, all of the estrogen receptor (ER)-positive human breast cancer cell lines examined (MCF-7, T-47D, ZR-75-1) responded to KGF treatment (10-50 ng/ml); however, the responsiveness differed substantially among the cell lines tested.

MCF-7 cells [3] = assay: MCF-7 nude mouse xenograft model, growth and metastasis (β-gal reporter); type: in vivo, female nu/nu balb/C mice
Description: In these experiments 5×10^6 viable MCF-7 cells, transfected with a β-gal reporter plasmid, were embedded into 0.2 ml Matrigel and implanted into female nude mice. Four animal/group were treated with either KGF (2.5 μg/kg) or control vehicle every other day. After 21 days of treatment the tumor, lung and liver tissue were removed and assayed for b-gal activity using a CRPG substrate for β-gal.
In order to determine the influence of KGF on tumor growth and development in vivo, we recently examined the effect of KGF treatment on the growth and metastasis of MCF-7 cells in a nude mouse xenograft model (27, 28). In these experiments 5×10^6 viable MCF-7 cells, transfected with a β-gal reporter plasmid, were embedded into 0.2 ml Matrigel and implanted into female nu/nu balb/C mice at 6 weeks of age. At 40 days after tumor cell implantation, when approximately 0.5 cm tumor masses were observed, animal were treated with either human recombinant KGF or control vehicle by intra-tumoral injections every other day for a period of 21 days. […] In tumor and tissue samples, collected at the end of the treatment period, the β-gal activity was used as a reported to quantify MCF-7 cells as previously described (27). […] However, in the connective tissue surrounding the tumors and in the lung and liver tissue samples, the β-gal activity was much greater in the KGF treated than in the control samples (FIG. 2) (28). The results of the present study indicate that KGF enhances the migration of breast cancer cells away from the tumor mass, resulting in measurable lung and liver metastasis within the 21 day treatment period.

| Molecule | KGF-mediated motility of MCF-7 cells (MCF-7 cells [1]) | phospho-Erk1,2 protein level (phospho-Erk1,2) | enhancement in motility, ER-negative cell lines [2] | duration of change in morphology of MCF-7 cells (MCF-7 human cancer cells) | motility effect on MCF-7 cells (MCF-7 human cancer cells) | perimeter index (PI) (MCF-7 human cancer cells) | time of maximal KGF motility effect (MCF-7 human cancer cells) | response to KGF treatment, ER-positive cell lines (MCF-7, T-47D, ZR-75-1) | β-gal activity in connective tissue surrounding the tumors, lung and liver (MCF-7 cells [3]; end of 21 day treatment) | β-gal activity in tumor tissue (MCF-7 cells [3]; end of 21 day treatment) | tumor volume (MCF-7 cells [3]; intra-tumoral injections every other day for 21 days, KGF 2.5 μg/kg) |
| --- | --- | --- | --- | --- | --- | --- | --- | --- | --- | --- | --- |
| COc1cccc(-c2cc(=O)c3ccccc3o2)c1N [PD98059] | completely abolished |  |  |  |  |  |  |  |  |  |  |
| O=c1c(-c2ccc(O)cc2)coc2cc(O)cc(O)c12 [genistein] | completely abolished |  |  |  |  |  |  |  |  |  |  |
| KGF: recombinant human Keratinocyte Growth Factor, member of the fibroblast growth factor family (FGF-7) (protein, UniProt P21781 32-194, looked up) Fibroblast growth factor 7: CNDMTPEQMATNVNCSSPERHTRSYDYMEGGDIRVRRLFCRTQWYLRIDKRGKVKGTQEMKNNYNIMEIRTVAVGIVAIKGVESEFYLAMNKEGKLYAKKECNEDCNFKELILENHYNTYASAKWTHNGGEMFVALNQKGIPVRGKKTKKEQKTAHFLPMAIT |  | increase | little or no enhancement | at least 48 hours | cell scattering motility effect | dose-related increase | one | responded | much greater | significantly less than in the controls | the same as in the control tumors |
